Experimental data reported in the supplement of paper PMC10126150.
± gives the standard deviation of the averaged measurements.

Tested on: ATP
Assay: switch fluorescence ratio, 500 uM ATP over buffer (Cy3 cluster intensity, sum of 5 cycles each) (fold (ratio)); higher = stronger signal-on switching upon ATP binding; sequences stand for … in TCGTCGGCAGCGTCAGATGTGTATAAGAGACAGTTTTTTTTTTTTTTTTTTTTTTTTT…TC
Conditions: aptamer strand: ATP DNA aptamer (quencher-CACCTGGGGGAGTATTGCGGAGGAAGG + anchor), 100 nM annealed; ATP concentration: 500 uM
Procedure, shortened: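 The fluorescence ratio divides summed target-cycle Cy3 intensity by summed buffer-cycle Cy3 intensity for each cluster and is averaged per switch-domain sequence. Cy3-labelled switching-strand clusters on a modified Illumina MiSeq flow-cell were annealed to 100 nM quencher-labelled ATP aptamer, then imaged in selection buffer and again after 15 min with 500 uM ATP at 22 °C. Five such cycles were run, with NaOH stripping and re-annealing between them, and clusters outside 100-1000 RFU were excluded.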
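Note: ATP exposure 15 min at 22 °C before imaging.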

| Sequence | switch fluorescence ratio |
| --- | --- |
| TACCCAGATT | 1.66 ± 0.98 |
| CGCTATTGGT | 1.002 ± 0.0043 |
| TTTTCTTTT | 1.02 ± 0.024 |
| CTAGCCGGGA | 1.017 ± 0.009 |
| CGGGTTTAAA | 1 ± 0.011 |
| AAGGTTTAGT | 1 ± 0.024 |
| AGTTATGTTG | 0.995 ± 0.021 |
| ATATTGTAAC | 0.98 ± 0.013 |
| GGAAATTTGT | 1.008 ± 0.0044 |
| GGGAGTTGGA | 1.02 ± 0.024 |
| GGATTTTTGG | 0.989 ± 0.036 |
| GTGGGGGGGT | 0.992 ± 0.026 |
| CTTTGAATGT | 0.983 ± 0.03 |
| GCGGGGGGGT | 1.01 ± 0.038 |
| CGCTGCTAAT | 1.58 ± 0.08 |
| GAGAAGTTGA | 1 ± 0.02 |
| GAGGGACAAT | 0.9882 ± 0.0066 |
| CGAGCTGTTT | 1.02 ± 0.0099 |
| TGGGGGGTTA | 0.995 ± 0.024 |
| TCCGACTCG | 1.09 ± 0.041 |
| CTTAGAAGCA | 0.9943 ± 0.0017 |
| TAATTGGTGG | 1.01 ± 0.029 |
| CTTGGTTAGT | 1.03 ± 0.056 |

| Sequence | switch fluorescence ratio |
| --- | --- |
| TAATTTCTTA | 0.996 ± 0.014 |
| TATTTTTGCC | 1.001 ± 0.0031 |
| TTTCGCGATT | 2.32 ± 1.7 |
| TTTGGTTATT | 1 ± 0.04 |
| TGAGGGTTTA | 0.991 ± 0.017 |
| CATGTTCGGG | 0.971 ± 0.012 |
| ATGGTGTATC | 0.981 ± 0.026 |
| CAATGGATGA | 1 ± 0.015 |
| CGGGATAGGC | 1.12 ± 0.02 |
| ATATTGATTC | 1.01 ± 0.027 |
| GTGGTGGGTA | 0.947 ± 0.073 |
| AGTTTTGCGT | 1.01 ± 0.034 |
| TGATAAGTG | 0.9877 ± 0.0016 |
| ATAACCGTGG | 1.05 ± 0.074 |
| AAGGGTGCGT | 1.01 ± 0.044 |
| GTGGGAGTTG | 0.969 ± 0.04 |
| TGCTGAAGGA | 0.9743 ± 0.0064 |
| TTGGGGTCTT | 1.02 ± 0.043 |
| GGGTAATTTG | 1 ± 0.03 |
| AGAGTTATGC | 1.022 ± 0.01 |
| CGTTAGTGCG | 1 ± 0.025 |
| CTCGAGAAGA | 1.01 ± 0.022 |
| ACATCTTCGA | 0.97 ± 0.046 |

| Sequence | switch fluorescence ratio |
| --- | --- |
| GCGCGTAGGC | 1 ± 0.021 |
| CAGTTTGTTA | 0.994 ± 0.036 |
| AAGTTGACCG | 1.04 ± 0.046 |
| AACGTTCATG | 1.02 ± 0.044 |
| TCCTACTGGG | 1.04 ± 0.028 |
| GATAGTGAGT | 0.988 ± 0.016 |
| CGTTGTTGTT | 0.989 ± 0.045 |
| GTCTATACAT | 0.973 ± 0.028 |
| AATTAAAGTT | 0.98603 ± 0.00086 |
| GGGTCTCCAT | 1.02 ± 0.03 |
| AGGTTGTAGC | 0.998 ± 0.02 |
| GAAGTTGGGA | 0.9857 ± 0.0095 |
| GGAAGGCGGC | 1.08 ± 0.071 |
| AGTAACGGTA | 1.04 ± 0.012 |
| GGAACCTTGG | 1.023 ± 0.0094 |
| TTAAGAACGG | 1.03 ± 0.075 |
| GTGGGGAAAA | 0.994 ± 0.035 |
| ATCGGACGCG | 0.987 ± 0.016 |
| TTGGAAAATA | 1.009 ± 0.0042 |
| ACACCACGTT | 1.56 ± 0.057 |
| GATATGATAC | 1.077 ± 0.008 |
| TAGGGGAATC | 0.992 ± 0.02 |
| CGAGGCGCG | 0.9537 ± 0.008 |

| Sequence | switch fluorescence ratio |
| --- | --- |
| ACGCTTTATT | 1.08 ± 0.032 |
| TTTTAGTATA | 1.02 ± 0.045 |
| CGCTTGTCAC | 1.18 ± 0.021 |
| CGGTTTGAGT | 0.983 ± 0.019 |
| GACGGTAACT | 1.14 ± 0.059 |
| AAACGGCGGC | 1.05 ± 0.041 |
| GGGTTTGCAT | 1.02 ± 0.034 |
| GGTACTTGGG | 0.984 ± 0.033 |
| TCGGGGGAAA | 0.994 ± 0.036 |
| TCGAAATATT | 1.55 ± 0.81 |
| TGGGGGTTTA | 1.03 ± 0.019 |
| CAGCGGGCGT | 0.963 ± 0.01 |
| TTTTAATGTT | 1 ± 0.046 |
| GCGGAGGGTG | 1.028 ± 0.0092 |
| TAATGCATTT | 1.01 ± 0.017 |
| CGAGTTGCTG | 0.988 ± 0.11 |
| CTATTAGGGA | 0.9728 ± 0.0092 |
| CAGCTTTTGG | 0.993 ± 0.039 |
| TCGCTAACGG | 1.07 ± 0.018 |
| GGCAAAGGAC | 1.08 ± 0.027 |
| TTTTTTCTCG | 1.04 ± 0.078 |
| CATTGTAAGA | 0.962 ± 0.043 |
| CTGAAAACTA | 1.02 ± 0.059 |

| Sequence | switch fluorescence ratio |
| --- | --- |
| GAGAATTAGG | 0.964 ± 0.039 |
| TGGACAATGG | 1.03 ± 0.051 |
| TTTGAATTAG | 1 ± 0.039 |
| GCGTTTGGGG | 1.01 ± 0.043 |
| TTTTTCGTTG | 0.997 ± 0.049 |
| CTAGGCAGTT | 1.01 ± 0.012 |
| ATTTTTATGG | 0.996 ± 0.036 |
| TATGTTTCGT | 1.01 ± 0.041 |
| TTTTGGGGTC | 1.02 ± 0.023 |
| TTGAGGTAGT | 0.984 ± 0.014 |
| ACGGATGGGG | 0.997 ± 0.019 |
| CACCGGGGTT | 1.01 ± 0.018 |
| CGTGCCCGTG | 1 ± 0.017 |
| TCTGTGTTGA | 1 ± 0.011 |
| TCGTTTTGCT | 0.981 ± 0.017 |
| GGTATTATCG | 0.969 ± 0.017 |
| TTGCAGTTGT | 0.993 ± 0.041 |
| GATGTGTTTT | 0.974 ± 0.02 |
| GTGGTATATG | 0.997 ± 0.0073 |
| TTATTCGGCA | 1.005 ± 0.0036 |
| ACGGGCGACG | 1.02 ± 0.025 |
| CAGAGGGGGA | 1.04 ± 0.036 |
| GAGATTGGAG | 0.9892 ± 0.0044 |

| Sequence | switch fluorescence ratio |
| --- | --- |
| GGAGGGATAA | 1.1 ± 0.054 |
| TTTGGTTAGC | 1.01 ± 0.02 |
| GAACTTAGAT | 1.01 ± 0.04 |
| AATCAGTTTG | 1.022 ± 0.0094 |
| TAAGTGGTA | 0.993 ± 0.042 |
| GATAGAAGGT | 1.04 ± 0.056 |
| GACTTGGTGC | 1.06 ± 0.023 |
| CATAACATAG | 0.995 ± 0.012 |
| AGGAAAAAGT | 1.02 ± 0.039 |
| CTAAATTAGT | 0.995 ± 0.042 |
| TCAGTGACGT | 0.9827 ± 0.0096 |
| TTGCGGGGTG | 1.01 ± 0.045 |
| CTTTTAGCTG | 1 ± 0.019 |
| AAATGGATCA | 1.024 ± 0.0029 |
| GATCGTCTGC | 0.925 ± 0.035 |
| TTTGGTGTGC | 1.01 ± 0.022 |
| AAACGGGTGC | 1.27 ± 0.29 |
| ATTCGAGGTT | 0.987 ± 0.071 |
| GAGGGGATGA | 1.01 ± 0.031 |
| GCCGCACGGA | 1.13 ± 0.045 |
| GGGTCCCCGC | 1.12 ± 0.056 |
| CGCGGAGCTT | 1.03 ± 0.033 |
| ACTCTGGTAA | 1.065 ± 0.0032 |

| Sequence | switch fluorescence ratio |
| --- | --- |
| ACTTTGGTTA | 1.04 ± 0.042 |
| CATGTGCGTG | 1 ± 0.022 |
| ATAGTAATCG | 0.988 ± 0.064 |
| CTAACCAGCC | 1.6 ± 0.13 |
| GGGTCTTGTG | 0.989 ± 0.022 |
| CATGTTGGAG | 0.9924 ± 0.0053 |
| TAAAAATCAT | 1.01 ± 0.034 |
| TGGTGCTTGG | 1.04 ± 0.013 |
| TAGCTTGGCA | 0.991 ± 0.048 |
| AAGTATTGGT | 1.02 ± 0.041 |
| TCGGGCCCGG | 1 ± 0.078 |
| AGTAAATTAT | 1.03 ± 0.027 |
| GGTGAAGGAT | 0.982 ± 0.026 |
| TTTTGGTCAT | 0.962 ± 0.053 |
| GATTAGTGTT | 1.01 ± 0.021 |
| TATTACACAT | 1.01 ± 0.04 |
| TTCCCGGGGG | 1.06 ± 0.067 |
| CACGTAAACG | 1.0351 ± 9.7e-05 |
| TTTTTTAAAA | 0.995 ± 0.03 |
